The target in assay [1] is T1, Notch4 with a part of the intracellular domain substituted with GAL4 DNA binding domain, on b.end3 reporter …. Put plainly: cell-based or functional assay.
For assay [2], the target named is T2, Cynomolgus monkey Notch4-NRR domain fused with SEAP and 10× histidine tag (cynomolgus monkey, UniProt P05187 23-511 (human entry)).
T2 construct: not shown: 10x histidine tag
As to the kind of experiment: SPR (Biacore); antibody captured by anti-human IgG Fc on CM5, Notch4-NRR-SEAP-His injected. As to the method: (§1) Kinetic analysis of the interaction of human, cynomolgus monkey, mouse, and rat Notch4-NRR domains with Antibody B was carried out with BIACORE. […] The genes for these proteins were transfected into Expi293F cells in Opti-MEM (INVITROGEN) using ExpiFectamine 293. These cells were cultured in Expi293 Expression Medium (INVITROGEN). Briefly, cells were diluted to 7.5×10⁷ cells/25.5 mL, and transfected by ExpiFectamine 293 reagent on Day 0. About 16 hours after transfection, 150 uL of ExpiFectamine 293 Transfection Enhancer 1 and 1.5 mL of ExpiFectamine 293 Transfection Enhancer 2 were added to each flask. The supernatant was collected on Day 4. These antigens were purified with Ni-NTA Superflow column (QIAGEN). The interaction was analyzed as below. The purified Antibody B was captured by anti-human IgG Fc antibody fixed on a CM5 sensor chip (GE healthcare). The purified Notch4-NRR fusion proteins were injected onto the sensor chip at 8 different concentrations, and the interaction and dissociation thereof were observed as per manufacturer's instructions.

Assay [3] addresses T3, Human Notch4-NRR domain fused with secretory alkaline phosphatase (SEAP) and 10× histidine tag (human, UniProt Q99466 1046-1445).
T3 construct: 1 is named; not shown: secretory alkaline phosphatase (SEAP); 10x histidine tag
T3 sequence: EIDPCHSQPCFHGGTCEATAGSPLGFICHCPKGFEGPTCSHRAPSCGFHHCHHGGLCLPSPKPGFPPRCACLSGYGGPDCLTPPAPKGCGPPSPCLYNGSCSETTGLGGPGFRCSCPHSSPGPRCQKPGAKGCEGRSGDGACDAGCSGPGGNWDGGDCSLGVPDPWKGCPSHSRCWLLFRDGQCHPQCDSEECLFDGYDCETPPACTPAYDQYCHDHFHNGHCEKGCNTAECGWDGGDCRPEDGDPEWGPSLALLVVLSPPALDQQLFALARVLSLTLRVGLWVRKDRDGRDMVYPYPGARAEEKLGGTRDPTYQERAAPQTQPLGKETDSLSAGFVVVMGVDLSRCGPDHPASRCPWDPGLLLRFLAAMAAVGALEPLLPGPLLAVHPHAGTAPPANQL
The assay is described as above. As to the method:
as §1

The target in assay [4] is T4, Mouse Notch4-NRR domain fused with SEAP and 10× histidine tag (mouse, UniProt P31695 1042-1441).
T4 construct: domain: Notch4-NRR domain; not shown: secretory alkaline phosphatase (SEAP); 10x histidine tag
T4 sequence (looked up): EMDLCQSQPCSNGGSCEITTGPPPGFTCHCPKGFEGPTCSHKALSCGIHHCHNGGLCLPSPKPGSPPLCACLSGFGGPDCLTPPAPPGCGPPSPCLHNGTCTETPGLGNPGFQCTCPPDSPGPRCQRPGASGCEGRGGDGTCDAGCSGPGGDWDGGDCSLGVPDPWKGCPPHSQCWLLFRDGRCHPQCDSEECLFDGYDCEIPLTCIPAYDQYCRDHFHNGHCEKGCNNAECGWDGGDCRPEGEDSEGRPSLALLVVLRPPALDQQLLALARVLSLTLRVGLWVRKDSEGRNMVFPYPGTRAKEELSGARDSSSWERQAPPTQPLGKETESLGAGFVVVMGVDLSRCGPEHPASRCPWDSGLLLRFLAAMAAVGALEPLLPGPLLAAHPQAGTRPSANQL
Described as above. As to the method: as §1

Assay [5] concerns the target T1, Notch4 with a part of the intracellular …. Put plainly: cell-based or functional assay. This is another data set of the same source.
The target in assay [6] is T5, Human Notch4-NRR domain Fc fusion protein (human, UniProt Q99466 1046-1445, limits assumed).
T5 construct: Expressed in a CHO cell line, used from culture supernatant; 1 is named; also called Human Notch4-NRR Fusion Protein; not shown: Fc
T5 sequence: T3 sequence
As to the kind of experiment: SPR (Biacore); Notch4-NRR-Fc captured by another anti-Notch4 antibody on CM5, antibody injected. As to the method: (§2) Kinetic analysis of further anti-Notch4 inhibitory humanized antibodies was carried out as follows. Human Notch4-NRR domain Fc fusion proteins were expressed with a CHO cell line. The antigen in the culture supernatant was captured by the anti-human Notch4 antibody fixed on a CM5 sensor chip that recognizes different epitopes of human Notch4. The humanized anti-human Notch4 antibody was then injected onto the sensor chip at various concentrations. The interaction and disassociation constants thereof were calculated according to manufacturer's instructions.
(In general: Surface plasmon resonance follows binding to a sensor surface in real time, without labels.)

Assay [7] concerns the target T5, Human Notch4-NRR domain Fc fusion …. As to the kind of experiment: SPR (Biacore) as for Table 30; Notch4-NRR-Fc captured, antibody injected; averaged, N=2. As to the method: as §2
Assay [8] concerns the target T6, Human Notch4-NRR-SEAP-HA-His (human, UniProt Q99466 1046-1445).
T6 construct: also called human Notch4-NRR-SEAP-His; human Notch4 NRR domain; not shown: secretory alkaline phosphatase (SEAP); hemagglutinin (HA) tag; histidine tag (x10)
T6 sequence: T3 sequence
Put plainly: SPR (BIAcore T100); antibody captured by anti-human IgG Fc on CM5, NRR-SEAP-HA-His injected at 6 concentrations. How it is done:
Kinetics analysis using BIAcore T100 was performed for the interaction between the NRR domain of human Notch isotypes (Notch1, Notch2, Notch3, and Notch4) and Antibody B. Antibody B was purified from the culture supernatant of a stable expression CHO cell line of Antibody B with sequential use of protein A affinity chromatography, Capto Q anion exchange chromatography, and UNOsphere S cation exchange chromatography. Fusion proteins of Human Notch1 NRR domain (Genbank Accession No. 017617; sequence positions 1307-1733), human Notch2 NRR domain (Genbank Accession No. 024408; sequence positions 1239-1650), human Notch3 NRR domain (Genbank Accession No. 000435; sequence positions 1246-1641), and human Notch4 NRR domain (Genbank Accession No. NP_004548.3; sequence positions 1046-1445) with secretory alkaline phosphatase (SEAP), a hemagglutinin (HA) tag, and a histidine tag (×10) were created, and these were purified with HisTrap™ Fast Flow column (GE Healthcare). The interaction between Antibody B and the NRR domain of each human Notch isotypes was measured with the following method. The purified Antibody B was captured by anti-human IgG Fc antibody fixed on a CM5 sensor chip (GE Healthcare). The purified NRR domain of each human Notch isotypes was injected onto the sensor chip at 6 different concentrations, and the interaction and dissociation with the antibody were observed as per operation manual.

These results are taken from patent publication US20170096493A1 (EISAI R AND D MANAGEMENT, published 2017).

T2 sequence (P05187 23-511): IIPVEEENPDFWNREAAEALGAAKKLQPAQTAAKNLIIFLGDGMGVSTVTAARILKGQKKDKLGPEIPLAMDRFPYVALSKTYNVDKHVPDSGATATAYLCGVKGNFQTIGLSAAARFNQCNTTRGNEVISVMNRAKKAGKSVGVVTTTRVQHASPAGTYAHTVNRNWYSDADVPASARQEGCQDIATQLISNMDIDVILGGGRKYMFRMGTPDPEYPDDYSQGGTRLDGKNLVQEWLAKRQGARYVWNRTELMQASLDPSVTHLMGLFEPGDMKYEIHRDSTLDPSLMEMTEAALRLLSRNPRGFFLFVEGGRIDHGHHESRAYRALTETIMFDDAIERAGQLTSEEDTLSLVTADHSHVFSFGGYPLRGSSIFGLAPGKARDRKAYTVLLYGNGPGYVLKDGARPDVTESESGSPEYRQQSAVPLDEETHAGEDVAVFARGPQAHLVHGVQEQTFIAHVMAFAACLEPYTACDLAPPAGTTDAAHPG

B1: Antibody B (antibody, human IgG2, kappa)
heavy: EVQLVESGGGLVQPGGSLRLSCAASGFTFSSYGMSWVRQAPGKGLELVATINSNGGRTYYPDSVKGRFTISRDNSKNTLYLQMGSLKAEDMAVYYCARDQGFAYWGQGTLVTVSSASTKGPSVFPLAPCSRSTSESTAALGCLVKDYFPEPVTVSWNSGALTSGVHTFPAVLQSSGLYSLSSVVTVPSSNFGTQTYTCNVDHKPSNTKVDKTVERKCCVECPPCPAPPAAAPSVFLFPPKPKDTLMISRTPEVTCVVVDVSHEDPEVQFNWYVDGVEVHNAKTKPREEQFNSTFRVVSVLTVVHQDWLNGKEYKCKVSNKGLPAPIEKTISKTKGQPREPQVYTLPPSREEMTKNQVSLTCLVKGFYPSDIAVEWESNGQPENNYKTTPPMLDSDGSFFLYSKLTVDKSRWQQGNVFSCSVMHEALHNHYTQKSLSLSPG
light: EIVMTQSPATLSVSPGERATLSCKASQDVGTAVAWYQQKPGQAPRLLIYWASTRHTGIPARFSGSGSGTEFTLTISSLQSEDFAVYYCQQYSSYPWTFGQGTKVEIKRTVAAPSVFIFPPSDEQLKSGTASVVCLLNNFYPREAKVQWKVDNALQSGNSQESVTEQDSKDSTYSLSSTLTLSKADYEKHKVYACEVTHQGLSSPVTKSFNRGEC
notes: Humanized IgG2 (V234A, G237A)/κ; also called HK3L3 (Lys-); HK3L3(Lys-)
Broadly, the Kd is the concentration at which binding is half-saturated. As a reminder, the koff is a measure of how fast the partners let go of each other. For orientation: kon means the second-order rate constant of association. For the molecule B1, the “% of Control (relative luminescence), Notch4-GAL4 luciferase reporter assay, antibody at 10 µg/ml” value in assay [1] was 10.8 % of Control. The Kd in assay [2] was found to be 3.62 nM; in assay [3], 3.74 nM; in assay [4], 11.2 nM; in assay [6], 0.441 nM; in assay [7] it was 0.331 nM; in assay [8], 30.5 nM. Also, the koff in assay [2] came to 0.00106 s⁻¹; in assay [3], 0.00118 s⁻¹; in assay [4], 0.00727 s⁻¹; in assay [6], 0.00071 s⁻¹; in assay [7], 0.000822 s⁻¹; in assay [8], 0.000831 s⁻¹. Besides, the kon came out at 295000 M⁻¹ s⁻¹ in assay [2]; 317000 M⁻¹ s⁻¹ in assay [3]; 601000 M⁻¹ s⁻¹ in assay [4]; 1.66e+06 M⁻¹ s⁻¹ in assay [6]; 2.48e+06 M⁻¹ s⁻¹ in assay [7]; 27200 M⁻¹ s⁻¹ in assay [8]. For the same molecule, the “IC50 of relative luminescence (%), Notch4-GAL4 luciferase reporter assay, reporter cells stimulated with solid phased DLL4” value in assay [5] was 0.011 µg/mL.
